# Reference: patent publication US20230101266A1 (GENEQUANTUM HEALTHCARE SUZHOU, published 2023)
# T1: recombinant extracellular domain of human TROP2 (human, UniProt P09758 27-274)
# T1 construct: extracellular domain; Commercial protein (Acrobiosystem), used as the analyte in SPR; also called Trophoblast antigen 2; GA733-1
# T1 sequence (looked up): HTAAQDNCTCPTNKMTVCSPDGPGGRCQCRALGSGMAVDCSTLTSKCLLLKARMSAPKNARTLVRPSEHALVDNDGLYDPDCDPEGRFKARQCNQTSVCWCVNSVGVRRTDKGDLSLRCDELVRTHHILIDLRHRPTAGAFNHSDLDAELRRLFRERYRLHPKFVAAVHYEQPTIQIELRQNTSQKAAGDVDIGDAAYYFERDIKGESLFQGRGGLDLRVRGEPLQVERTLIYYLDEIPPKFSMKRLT
# Target: T1, recombinant extracellular domain of …
# Assay: SPR, Biacore 8K, antibody captured on Protein A chip, TROP2 ECD as analyte, 25 C, 1:1 model
# Description: Binding kinetics and affinity analysis are performed. Surface Plasmon Resonance (SPR) analysis is performed on a Biacore 8K (GE healthcare) with a Sensor Chip Protein A (GE healthcare) following manufacturer's instructions. All measurements are performed at 25° C. in the HBS-EP+ buffer (10 mM HEPES, pH 7.4, 150 mM NaCl, 3 mM EDTA, and 0.05% surfactant P20). About 110-140 RU (Resonance unit) of each of the purified antibodies is captured on flow cells 2, 4, 6, 8, 10, 12, 14, 16 (i.e., the reaction surface) of the sensor chip, respectively. Flow cells 1, 3, 5, 7, 9, 11, 13 and 15 are treated with the HBS-EP+ buffer to serve as reference surfaces.
# Serial dilutions of the recombinant extracellular domain of human TROP2 (i.e., the analyte) (Acrobiosystem) (243, 81, 27, 9, 3, 1, 0.333, and 0.111 nM, respectively) are prepared in HBS-EP+ buffer. Capturing of the antibodies is followed by a three-minute injection (association phase) of serial dilutions of TROP2 at a flow rate of 30 μL/min and ten minutes of buffer flow (dissociation phase). The chip surface is regenerated by two pulses of 30-second injection of 10 mM Glycine-HCl pH 1.5 at a flow rate of 50 μL/min. The collected data are processed on a Biacore 8K Evaluation software using methods known in the art, comprising the following steps: (1) setting the response on the y-axis and the start of the injection on the x-axis to zero, (2) performing double referencing by firstly subtracting the reference surface data from the reaction surface data to get the analyte injection curves, and then subtracting the buffer injection curves from the analyte injection curves, and (3) performing the kinetic analysis using the 1:1 binding model with a global fit. The result for each antibody is presented as Ka (on-rate), Kd (off-rate) and KD (affinity constant) (Table 3).
Binder,Kd,koff,kon
"Ab0054 (antibody, human IgG1, kappa, V domains shown, Humanized IgG; also called Ab0001-huV5-VL / Ab0001-huV4-VH) VH: QVQLVQSGAEVKKPGSSVKVSCKASGYRFTDYVINWVRQAPGQGLEWMGQIYPGSDSFHYNQKFQGRATLTADKSTNTAYMELSSLRSEDTAVYYCARFFEGLAYWGQGTLVTVSS VL: DIQMTQSPSSLSASVGDRVTITCKASQGINNYLSWYQQKPGKAPKSLIYRANRLVDGVPSRFSGSGSGTDFTLTISSLQPEDFATYYCLQYDEFPLTFGGGTKVEIKR",0.43 nM,0.000416 s⁻¹,975000 M⁻¹ s⁻¹
"Ab0052 (antibody, human IgG1, kappa, V domains shown, Humanized IgG; also called Ab0001-huV3-VL / Ab0001-huV4-VH) VH: QVQLVQSGAEVKKPGSSVKVSCKASGYRFTDYVINWVRQAPGQGLEWMGQIYPGSDSFHYNQKFQGRATLTADKSTNTAYMELSSLRSEDTAVYYCARFFEGLAYWGQGTLVTVSS VL: DIQMTQSPSSLSASVGDRVTITCKASQGINNYLSWYQQKPGKAPKSLIYRANRLVDGVPSRFSGSGSGQDYTLTISSLQPEDFATYYCLQYDEFPLTFGGGTKVEIKR",0.31 nM,0.000321 s⁻¹,1.03e+06 M⁻¹ s⁻¹
"Ab0053 (antibody, human IgG1, kappa, V domains shown, Humanized IgG; also called Ab0001-huV4-VL / Ab0001-huV4-VH) VH: QVQLVQSGAEVKKPGSSVKVSCKASGYRFTDYVINWVRQAPGQGLEWMGQIYPGSDSFHYNQKFQGRATLTADKSTNTAYMELSSLRSEDTAVYYCARFFEGLAYWGQGTLVTVSS VL: DIQMTQSPSSLSASVGDRVTITCKASQGINNYLSWYQQKPGKAPKSLIYRANRLVDGVPSRFSGSGSGTDYTLTISSLQPEDFATYYCLQYDEFPLTFGGGTKVEIKR",0.32 nM,0.000326 s⁻¹,1.01e+06 M⁻¹ s⁻¹
"Ab0061 (antibody, human IgG1, kappa, V domains shown, Humanized IgG; also called Ab0001-huV5-VL / Ab0001-huV5-VH) VH: QVQLVQSGAEVKKPGSSVKVSCKASGYRFTDYVINWVRQAPGQGLEWMGQIYPGSDTFHYNQKFQGRATLTADKSTNTAYMELSSLRSEDTAVYYCARFFEGLAYWGQGTLVTVSS VL: DIQMTQSPSSLSASVGDRVTITCKASQGINNYLSWYQQKPGKAPKSLIYRANRLVDGVPSRFSGSGSGTDFTLTISSLQPEDFATYYCLQYDEFPLTFGGGTKVEIKR",0.62 nM,0.000545 s⁻¹,874000 M⁻¹ s⁻¹
"Ab0062 (antibody, human IgG1, kappa, V domains shown, Humanized IgG; also called Ab062; Ab0001-huV5-VL / Ab0001-huV6-VH) VH: QVQLVQSGAEVKKPGSSVKVSCKASGYRFTDYVINWVRQAPGQGLEWMGQIYPGSDAFHYNQKFQGRATLTADKSTNTAYMELSSLRSEDTAVYYCARFFEGLAYWGQGTLVTVSS VL: DIQMTQSPSSLSASVGDRVTITCKASQGINNYLSWYQQKPGKAPKSLIYRANRLVDGVPSRFSGSGSGTDFTLTISSLQPEDFATYYCLQYDEFPLTFGGGTKVEIKR",0.81 nM,0.000719 s⁻¹,889000 M⁻¹ s⁻¹
"Ab0063 (antibody, human IgG1, kappa, V domains shown, Humanized IgG; also called Ab0001-huV8-VL / Ab0001-huV4-VH) VH: QVQLVQSGAEVKKPGSSVKVSCKASGYRFTDYVINWVRQAPGQGLEWMGQIYPGSDSFHYNQKFQGRATLTADKSTNTAYMELSSLRSEDTAVYYCARFFEGLAYWGQGTLVTVSS VL: DIQMTQSPSSLSASVGDRVTITCKASQGINNYLSWYQQKPGKAPKSLIYRANRLVSGVPSRFSGSGSGTDFTLTISSLQPEDFATYYCLQYDEFPLTFGGGTKVEIKR",0.46 nM,0.000394 s⁻¹,862000 M⁻¹ s⁻¹
"Ab0064 (antibody, human IgG1, kappa, V domains shown, Humanized IgG; also called Ab0001-huV8-VL / Ab0001-huV5-VH) VH: QVQLVQSGAEVKKPGSSVKVSCKASGYRFTDYVINWVRQAPGQGLEWMGQIYPGSDTFHYNQKFQGRATLTADKSTNTAYMELSSLRSEDTAVYYCARFFEGLAYWGQGTLVTVSS VL: DIQMTQSPSSLSASVGDRVTITCKASQGINNYLSWYQQKPGKAPKSLIYRANRLVSGVPSRFSGSGSGTDFTLTISSLQPEDFATYYCLQYDEFPLTFGGGTKVEIKR",0.76 nM,0.000547 s⁻¹,722000 M⁻¹ s⁻¹
